{
  "source": "the nanobody polyreactivity screen of Harvey et al. (2022)",
  "data": [
    {"test": "yeast display, Sf9 membrane polyspecificity reagent, FACS + sequencing; frameworks hold sequencing errors", "summary_of_the_method": "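After 36–48 hours of galactose induction, yeast (Saccharomyces cerevisiae BJ5465) displaying a synthetic nanobody library were stained at 4 °C for 1 hour with 10% biotinylated, detergent-solubilized Sf9 membrane reagent. Streptavidin microbeads enriched the stained cells before FACS sorting into low and high (top ~1%) gates on anti-HA and streptavidin fluorescence. Each clone's polyreactivity label reflects its gate of origin.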", "values": [
      {"sequence": "QVQLVESGGGLVQAGGSLRLSCAATGRIFYGYAMGWYRQAPVKERELVAAITRGVSTYYADSVKGRFTISRDNAKNTVYLQMNSLKPEDTAVYYCAIERRVRMDSWGQGTQVTVSS", "polyreactivity (PSR sort gate)": "low polyreactivity"},
      {"sequence": "QVQLVESGGGLVQAGGSLRLSCAATGRIYVTNAMGWYRQAPGKERELVAAITESGGSTYYADTVKGRFTISRDNAKNTVYLQMNSLKPEDTAVYYCAADYLNGEEDYWGQGTQVTVSS", "polyreactivity (PSR sort gate)": "low polyreactivity"},
      {"sequence": "QVQLVESGGGLVQAGGSLRLSCAATGRNFVYNAMGWYRQAPGKERELVAAITWGGGSTYYADSVKGRFTISRDYAKNTVYLQMNSLKPEDTAVYYCAARGGSYPQDHSPYYEYDYWGQGTQVTVSS", "polyreactivity (PSR sort gate)": "low polyreactivity"},
      {"sequence": "QVQLVESGGGLVQAGGSLRLSCAATGRTFRYYAMGWYRQAPGKERELVAAISSGGSTNYADSVKGRFTISRDNAKNTVYLQMNSLKPEDTAVYYCAALWSGNKFNYWGQGTQVTVSS", "polyreactivity (PSR sort gate)": "low polyreactivity"},
      {"sequence": "QVQLVESGGGLVQAGGSLRLSCAATGRTFSEYVMGWYRQAPGKERELVAAISDRGTRTYYSDSVKGRFTISRDNAKNNVYLPMNSLKPEDTAVYYCYAGLTYNHDPYDYWGQGTQVTVSS", "polyreactivity (PSR sort gate)": "high polyreactivity"},
      {"sequence": "QVQLVESGGGLVQAGGSLRLSCAATGRTFSIYAMGWYRQAPGKERELVARIRGGGSTNYADSVKGRFTISRDNAKNTVYLQMNSLKPEDTAVYYCATVYWRYGAHSYRYYYWGQGTQVTVSS", "polyreactivity (PSR sort gate)": "high polyreactivity"},
      {"sequence": "QVQLVESGGGLVQAGGSLRLSCAATGRTFTYYALGGYRQAPGKQRELVAAISTSGGSTYYADSVKGRFTISRDNAKNTVYLQMNSLKPEDTAVYYCAASPYLRFLYGGFGYWGLGTQVTVSS", "polyreactivity (PSR sort gate)": "high polyreactivity"},
      {"sequence": "QVQLVESGGGLVQAGGSLRLSCAATGRTFYQYAKGWSRQAPGKERELVAAISRRGGSTYYADSVKGRFTISRDNAKNTVYLQMNSLKPEDTAVYYCAAQRQYGKFDYWGQGTQVTVSS", "polyreactivity (PSR sort gate)": "high polyreactivity"},
      {"sequence": "QVQLVESGGGLVQAGGSLRLSCAATGSIFDYYAMGWYRQAPGKERELVAAISLSGGITYYADSVKGRFTISRDNAKNTVYLQMNSLKPEDTEVYYCAADAIDVLYEYDRYDRRYEYWGQGTQVTVSS", "polyreactivity (PSR sort gate)": "low polyreactivity"},
      {"sequence": "QVQLVESGGGLVQAGGSLRLSCAATGSIFGDNAMGWYRQAPGKARELVAAITSSGGSTYYADSVKGRFTISRDNAKNTVYLQMNSLKPEDTAVYYCNADFGYGWYLRYDYWGQGSQVTVSS", "polyreactivity (PSR sort gate)": "high polyreactivity"},
      {"sequence": "QVQLVESGGGLVQAGGSLRLSCAATGSIFPPYGMGWYRRAPGKERELVAVITRSGGSTYYADSVKGRFTISRDNAKNTVYLQMNSLKPEDTAVYYCNVDSTTTFVYVVVSVVYEYDYWGQGTQVTVSS", "polyreactivity (PSR sort gate)": "low polyreactivity"},
      {"sequence": "QVQLVESGGGLVQAGGSLRLSCAATGSIFSFYAMGWYRQAPGKERELVAGIRWRGGTSTFYADSVKGRFTISRDKAKNTVYLHMNSLKPEDTAVYYCAAKRRTGGNGYWGQGTQVTVSS", "polyreactivity (PSR sort gate)": "high polyreactivity"},
      {"sequence": "QVQLVESGGGLVQAGGSLRLSCAATGSIFSSNAMGWYRQAPGKERELVAAIDYSGGRTYYADSVKGRFTISRDYEKNTVYLQMNSLKPEDTAVYYCAKLIPVHSRYDFWGQGTQVTVSS", "polyreactivity (PSR sort gate)": "low polyreactivity"},
      {"sequence": "QVQLVESGGGLVQAGGSLRLSCAATGSIFVLYAMGWYRQAPGKERALVAAISKSTGSTYYADSVKGRFTISRDNAKNTVYLQMNSLKPEDTAVYYCAARGRQYRYYDLDYWGQGTQVTVSS", "polyreactivity (PSR sort gate)": "low polyreactivity"},
      {"sequence": "QVQLVESGGGLVQAGGSLRLSCAATGSIFYFYTMGWYRQAPGKERELVAAIDWSSGSTYYADSVKGRFTISRDNAKNTVYLQMNSLKPEDTAVYYCNARDYWTGRHDYWGQGTQVTVSS", "polyreactivity (PSR sort gate)": "low polyreactivity"},
      {"sequence": "QVQLVESGGGLVQAGGSLRLSCAATGSIIQWNAMGWYRQAPGKERELVAAISWSGTRTYFADSVKGRFTISRDNAKNTVYLQMNSLKPEDTAVYYCAFRGGKPTYRYDYWGQGTQVTVSS", "polyreactivity (PSR sort gate)": "high polyreactivity"},
      {"sequence": "QVQLVESGGGLVQAGGSLRLSCAATGSISGYYAMGWYRQAPGKERELVASIRYTGARTYYADSVKGRFTISRDNAKNTVYLQMNSLKPEDTAVYACAADVKRDRVWGGDYWGQGTQVTVSS", "polyreactivity (PSR sort gate)": "low polyreactivity"},
      {"sequence": "QVQLVESGGGLVQAGGSLRLSCAATGSLFLPYGMGWYSQAPGKERELVAAFSRGGGSTYYADSVKGRFTISRDNAKNTVYLQMNSLKPEDTAVYYCAVDNLKSRAQSLDGFDYWGQGTQVTVSS", "polyreactivity (PSR sort gate)": "high polyreactivity"},
      {"sequence": "QVQLVESGGGLVQAGGSLRLSCAATGSTFRPYAMGWYRQAPGKERELVAAITTGGSTNYADSVKGRFTISRDNAKNTVYLQMNSLKPEDTAVYYCNADYDVLNWGYYDWGYDYWGQGTQVTVSS", "polyreactivity (PSR sort gate)": "low polyreactivity"},
      {"sequence": "QVQLVESGGGLVQAGGSLRLSCAATGSTFTAYAMAWYRQAPGKESELVAAIRRIGGDTYYADSVKGRFTISRDNAKNTVYLQMNSLKPEDSAVYYCAAFRWRSPQYWYHSMDHWGQGSQVTVSS", "polyreactivity (PSR sort gate)": "low polyreactivity"},
      {"sequence": "QVQLVESGGGLVQAGGSLRLSCAATGSTFTAYAMSWYRQAPGKESELVAAIRRIGGDTYYADSVKGLFTISRDNAKNTVYLQMNSLKPEDTAVYYCAAFRWRSLQYWYHSMDLWGQGSQVTVSS", "polyreactivity (PSR sort gate)": "low polyreactivity"},
      {"sequence": "QVQLVESGGGLVQAGGSLRLSCAATGSTFTFNAMGWYRQAPGKEREFVAAITASGGRTYYADSVKGRFTISRDNAKNTVYLQMNSLKPEDTAVYYCAADACLLGPGDFNYWGQGTQVTVSS", "polyreactivity (PSR sort gate)": "low polyreactivity"},
      {"sequence": "QVQLVESGGGLVQAGGSLRLSCAATGSTYKYYAMGWYRQAPGKERELVAAITKSGGRTYYSDSVKGRLTISRDNAKNTVYLQMNSLKPEDTAVYYCATVTSHVDDEFDYWGQGTQVTVSS", "polyreactivity (PSR sort gate)": "high polyreactivity"},
      {"sequence": "QVQLVESGGGLVQAGGSLRLSCAATGTFRRYAMGWYRQAPGKERELVAAITRNGGSTYYADSVKGRFTISRDNAKNTVYLQMNSLKPEDTAVYYCAAGLFWGGFRQWTDHHFDCDYYWGQGTQVTVSS", "polyreactivity (PSR sort gate)": "high polyreactivity"},
      {"sequence": "QVQLVESGGGLVQAGGSLRLSCAATGYTFFFYAMGWYRQAPGKEREFVAASTWRGDSTYYADSVKGRFTISRDNAKNTVYLQMNSLKPEDTAVYYCAADPGFTWSRRMDYWGQGTQVTVSS", "polyreactivity (PSR sort gate)": "low polyreactivity"},
      {"sequence": "QVQLVESGGGLVQAGGSLRLSCAATRSTIQANTIGWYRQAPGKERALVAAISIRGANTYYADSVKGRLTISRDNAKNTFYLQMNSLKREDSAVYYCATRVGKYSLSLDYWGQGTQVTVSS", "polyreactivity (PSR sort gate)": "high polyreactivity"},
      {"sequence": "QVQLVESGGGLVQAGGSLRLSCAAWSIFYLNAMGWYRQAHGKERELVAAISSAGSTYYADSVKGRFTISRDNAKKTVYLHMNSLKPEDTAVYYCAAYWYDSPGVTEIWYDYWGQGTQVTVSS", "polyreactivity (PSR sort gate)": "low polyreactivity"},
      {"sequence": "QVQLVESGGGLVQAGGSLRLSCAAWSIFYLNAMGWYRQAPGKERELVAAISSAGSTYYADSVKGRFTISRDNAKNTVYLQLNSLKPEDTAVYYCAAYWYDSPGVTEIWYDYWGQGTQVTVSS", "polyreactivity (PSR sort gate)": "low polyreactivity"},
      {"sequence": "QVQLVESGGGLVQAGGSLRLSCAAYGFTFWRNAMGWYIQAPGKERELVAAISASGGSTYYASSVKGRFTISRDNAKNTVYLQMNSLKPEDTAVYYCNAGEWAISEWGWVVDYDYWGQGTQVTVSS", "polyreactivity (PSR sort gate)": "low polyreactivity"},
      {"sequence": "QVQLVESGGGLVQAGGSLRLSCAAYGFTFWWYAMGWYRQAPGNERELVAAISASGASTYYADSVKGRFTISRDNAKNTVYLQMNSLKPEDTAVYYCAVVGLLRLYYWGQGTQVTVSS", "polyreactivity (PSR sort gate)": "high polyreactivity"},
      {"sequence": "QVQLVESGGGLVQAGGSLRLSCAAYGIIFRYYAMGWYRQAPGKERELVAAITASGGSTYYADSVKGRFTISRDHAKNTVYLQMNSLKPEDTAVYFGAAGSYFQHLIGYSTVSYGRNYWGQGTQVTVSS", "polyreactivity (PSR sort gate)": "high polyreactivity"},
      {"sequence": "QVQLVESGGGLVQAGGSLRLSCAAYGITFAPYAMGWYRQAPGKERELVAGINTGGSTYYADSVKGRFTISRDNAKNTVYLQMNSLKPEDTAVYYCATESYPADHDIPGSDYWGQGTQVTVSS", "polyreactivity (PSR sort gate)": "low polyreactivity"},
      {"sequence": "QVQLVESGGGLVQAGGSLRLSCAAYGITFRAYAMGWYRQAPGKEREFVASISGSGGSTYSADSVKGRFTISRDNAKNTVYFQMNSLKPEDTAVYYCATRRWGLATPTRYDYWGQGTQVTVSS", "polyreactivity (PSR sort gate)": "high polyreactivity"},
      {"sequence": "QVQLVESGGGLVQAGGSLRLSCAAYGITFSGYDMGWYRQAPGKERELVADITISTGSTYYADSVKGRFTISRDNAKNTVYLEMNSLKAEDTAVYYWNADSWFPDHFSYYGPYDYWGQGSQVTVSS", "polyreactivity (PSR sort gate)": "low polyreactivity"},
      {"sequence": "QVQLVESGGGLVQAGGSLRLSCAAYGITFSKNAKGWYRQAPGKERELVAAISRGGSSYYADSVKGRFTISRDNAKNTVYLQMNSLKPEDTAVYYCSAGWLRKYYYWGQGTQVTVSS", "polyreactivity (PSR sort gate)": "low polyreactivity"},
      {"sequence": "QVQLVESGGGLVQAGGSLRLSCAAYGLTLGRNAMGWYRQAPGKERELVAAITQSGGSTYYADSVKGRFTISRDNAKITVYLQMNSLKPEDTAVFYGAAQYSWGHYYTFDYWGQGTQVTVSS", "polyreactivity (PSR sort gate)": "low polyreactivity"},
      {"sequence": "QVQLVESGGGLVQAGGSLRLSCAAYGNTFYRNAMGWYRQAPGKERELVAAITFSTGRTYYADSVKGRFTISRDNAKNTVYLQLNSLKPEDTAVYYCAAFYRGGDYWGQGTQVTVSS", "polyreactivity (PSR sort gate)": "high polyreactivity"},
      {"sequence": "QVQLVESGGGLVQAGGSLRLSCAAYGRIFDGNAMGWYRQAPGKERELVAAITSRGGRTYYADSVKGRFTISRDNAKNTVYLQMNSLKPEDTAVYYCNTRVKSYGHYDYWGQGTQVTVSS", "polyreactivity (PSR sort gate)": "high polyreactivity"},
      {"sequence": "QVQLVESGGGLVQAGGSLRLSCAAYGRIFGYYAMGWYRQAPGKEREFVATISRSGGRTYYADSVKGRFTISRDNAKNTVYLQMNSLKPEDTAVYYCAKGVQFGSKTTFWYDYWGQGTQVTVSS", "polyreactivity (PSR sort gate)": "high polyreactivity"},
      {"sequence": "QVQLVESGGGLVQAGGSLRLSCAAYGRTFGLYAMGWYRQAPGKERELVAAISWGGGRTYYADSVKGRFTISRDNAKHTVYLQMNSLKPEDTAVFYCNAVYSPRYYVGGYDYWGQGTQVTVSS", "polyreactivity (PSR sort gate)": "high polyreactivity"},
      {"sequence": "QVQLVESGGGLVQAGGSLRLSCAAYGRTFPLYAMGWYRQAPGKEREFVAAISSRGGRTYYADSVKGRFTISRDNEKNTVYLQMNSLKPEDTAVYYCNARYVHDGFDYWGQGTQVTVSS", "polyreactivity (PSR sort gate)": "high polyreactivity"},
      {"sequence": "QVQLVESGGGLVQAGGSLRLSCAAYGRTLGDYAMGWYRQAPGKERELVAAISSGGNTYYADSVKGRFTISRDNAKNTVYLQMKSVKPEDSAVYYCDAAHYYRSYWGQGTQETVSS", "polyreactivity (PSR sort gate)": "high polyreactivity"},
      {"sequence": "QVQLVESGGGLVQAGGSLRLSCAAYGSIFAHYAMGWYRQAPGKERELVARISWSGGSTYYADSVKGRFSISLDNAKNTVYLQMNSLKPEDTAVYYCSADLTSKSSPQGYRYDYWGQGTQVTVSS", "polyreactivity (PSR sort gate)": "low polyreactivity"}
    ]}
  ]
}
